These results are taken from the supplement of paper PMC12042874.

± gives the uncertainty stated by the source.

A short description of one series: amyloid nucleation score (Sup35N fusion, yeast selection) (log enrichment); library NNK2; higher = more nucleation; inactive = no reads after selection. In a few lines: (§1)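 Random libraries were run with three technical output replicates. In each, psi-negative yeast expressing Sup35N fused to peptides of 20 random codons were induced 24 hours with 100 μM copper sulfate and grown 7 days at 30°C on medium lacking adenine and uracil, and input and output plasmid inserts were Illumina-sequenced. The nucleation score is the DiMSum log enrichment of output over input reads, centred on the mode score of non-aggregating sequences, and sequences under 100 input reads were excluded.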
Turning to LCRDCPNRVQLCQLL, the amyloid nucleation score is -0.684 ± 0.54. Same read-out and setting: in the case of LYKSSIA it was -2.08 ± 0.49; in that of TIYRSSSNNSQEHSLNLMFG, “inactive”; in that of RTCTNYVMINETVVR, “inactive”. Take YRLYHILECSGVMMS: the amyloid nucleation score is -1.01 ± 0.44. Turning to SYYFGPHWRVYTAFARFRI, the amyloid nucleation score entry was “inactive”.

With WNNYVLGYEVNRMCLLDRSV, the amyloid nucleation score entry is “inactive”. Same read-out and setting: to FYYSDDEFKCTVEIPVIYLI belongs -1.07 ± 0.5. Consider HLNFRSGILAISFIFDLSNH, for which the amyloid nucleation score result was “inactive”.

With CVFKVVPLVL, the amyloid nucleation score was determined as 0.005 ± 1. On to RRLGYPYFTR, for which the amyloid nucleation score was -0.743 ± 0.44. Turning to VLSENITSLISKCYCFKSHL, the amyloid nucleation score worked out at 6.021 ± 0.038. Regarding KSIVNL, the amyloid nucleation score was 0.465 ± 0.41. Consider TVAVRSPIT, for which the amyloid nucleation score is -0.686 ± 0.44.

Take LMSQGCRGRLLL: the amyloid nucleation score was -0.356 ± 0.64. The same measure, in the same setting: in the case of LAFPCFRVSGYESYGFVRKL it was 0.436 ± 0.31; in that of ALRLLSFKVMVVEDYLTMTL, 2.91 ± 0.098.

Turning to NVNMVMNNSGKSRLCISENY, the amyloid nucleation score is -0.19 ± 1. Same read-out and setting: in the case of VTALYGSSICMSRSDY it was 0.119 ± 0.47. Same read-out and setting: in the case of IQYGEIGHIFCKVVISLNLE it was 1.47 ± 0.2. Take GDGSRS: the amyloid nucleation score is 0.813 ± 0.23. The same measure, in the same setting: to VAVTMHYDNFHCLLCCCSTL belongs 8.384 ± 0.078; to PPVMFLRWCVQAGSPWTNHC, -0.105 ± 1.1. For SCAVSIVTGRGVHSFVKAWF, the amyloid nucleation score came out at 0.547 ± 0.17. In the case of ELCTKAINVMN, the amyloid nucleation score turned out to be 0.433 ± 0.48. Regarding VFKFLSAISPFKGD, the amyloid nucleation score was 0.551 ± 0.38. Regarding GSGFLFFSVF, the amyloid nucleation score was 0.353 ± 0.25. In the case of YNSCSYEIILGDFLWLLTGQ, the amyloid nucleation score came to 0.624 ± 0.2. Still for that read-out and setting: to CATSISMLEHQ belongs 0.556 ± 0.2; to RVPTSNLWSGNFYTALRVTG, -0.833 ± 0.63. The same measure, in the same setting: to YACFDCIIIQAWKFSIGTGL belongs 3.7 ± 0.051. Turning to TRDCLYFVLLILIIYLFGLR, the amyloid nucleation score amounted to 3.12 ± 0.14.

For the substance ISVVNSGCCCITTHPLRTYR, the amyloid nucleation score is 9.867 ± 0.079.

In turn, WSCCKFLDCHITVCDFLVWA gave an amyloid nucleation score of 7.587 ± 0.047.

NWIPYVWGWIALIVGSDF: the amyloid nucleation score was -0.158 ± 0.55. Substance YGRCNGLSGCQRGSCSREGG returned an amyloid nucleation score of 0.483 ± 0.46.

As to YLNVNNSQDNESAYVFDKVV, the amyloid nucleation score was found to be 0.058 ± 0.74. Same read-out and setting: in the case of NYWWYVPW it was 0.527 ± 0.51. Turning to IKYFY, the amyloid nucleation score was -0.939 ± 0.49. Same read-out and setting: to KPGRYRDVIRFLSDLLECNG belongs “inactive”; to RTWCPLG, 0.486 ± 0.41. Still for that read-out and setting: in the case of NSTKTRLSSDTTLDFLEATR it was -0.299 ± 0.27; in that of NTRCRSVTLMLGFSMESKVH, 0.76 ± 0.54; in that of MKVGLLD, -0.49 ± 0.76. GALYLRDVLVICIMCGKIRY returned an amyloid nucleation score of 2.73 ± 0.1. FVDDLARGLLVKRECSWQMQ came in with an amyloid nucleation score of 0.523 ± 0.33. The substance IQARSYFVPTFSFLCTHSPT registered an amyloid nucleation score of 0.839 ± 0.48. In turn, SLCMHTAVFHS yielded an amyloid nucleation score of 0.092 ± 0.32. Turning to MYSLSAAFT, the amyloid nucleation score entry is “inactive”.

Consider AGDLKRLSSQQLM, for which the amyloid nucleation score turned out to be 4.03 ± 0.051. As for CRSHVAGFDAHTNILLKPIC, the amyloid nucleation score is -0.346 ± 0.64. For KSWHPRFQSDMKFHLFCLVV, the amyloid nucleation score is -0.19 ± 0.56.

Turning to LRSGLSLGSNLPKGGNIRSL, the amyloid nucleation score was -0.531 ± 1.1. As to DIMVERGAFIGLKAD, the amyloid nucleation score amounted to 5.41 ± 0.068.

On to RCVGNYIWIKAFPMCLMTRC, for which the amyloid nucleation score was -0.825 ± 1.1.

Regarding LYRNSMRRDR, the amyloid nucleation score was -0.669 ± 0.35. The substance LSMSWC came in with an amyloid nucleation score of 1.1 ± 0.44. Consider IKLYCELCYFSNFWKIFTLR, for which the amyloid nucleation score entry was “inactive”. As for IILFEYCEF, the amyloid nucleation score was -0.613 ± 1.1.

ADNVGS returned an amyloid nucleation score of 3.71 ± 0.058. The same measure, in the same setting: to RSNSMMLCFASDIVRFYHMG belongs 2.71 ± 0.14. The same measure, in the same setting: in the case of MRVRLGSATR it was 0.47 ± 0.34; in that of CTFKFMAVQFCG, 5.46 ± 0.073. On the same count and under the same terms, to DSSMFYVIGLL belongs -0.626 ± 0.79; to SGHGLWLDAWCRLLDNRGYL, -0.403 ± 0.44. PTSNPSQRSRQRHQ: the amyloid nucleation score came out at 0.619 ± 0.81.

For FYESELLSARQFSVYVSLMM, the amyloid nucleation score result is “inactive”. The same measure, in the same setting: in the case of WCLGSMVTHYYLATNSSGYC it was 3.64 ± 0.11. For FITNHK, the amyloid nucleation score entry was “inactive”. Take GVSLFYNWPPSAFKVRYE: the amyloid nucleation score is -0.611 ± 1. The substance EGLLHTYCICGFLVYHYMEV had an amyloid nucleation score of 3.77 ± 0.054. GDGRVYMVIGSGRGRV showed an amyloid nucleation score of 0.506 ± 0.41. Still for that read-out and setting: in the case of VCAQLYPVYMWFWICMGMVQ it was 2.27 ± 0.14. As for FLGFI, the amyloid nucleation score is -1.94 ± 1.1. Take MGVKPTPCRVRPPRRPGASA: the amyloid nucleation score turned out to be 1.68 ± 0.27. For AHYIASVDWIFKM, the amyloid nucleation score is -1.32 ± 0.41. Still for that read-out and setting: in the case of RLCVILCQVMTWRMAVSILE it was 0.228 ± 0.56; in that of NLWRLISNLIDVMHPMYSTE, -0.089 ± 1.1; in that of GKSEVGLGVGEHMQSEHGGS, -0.055 ± 0.49. In turn, CIKVCALGCVDGVLVWERRW gave an amyloid nucleation score of 0.538 ± 0.27. Turning to EARVSDSVFGLVVVKTMCYV, the amyloid nucleation score was found to be 5.535 ± 0.043. As to ISIFFVMLLMYRMFGYVECA, the amyloid nucleation score was 0.856 ± 0.5. For LFCVRSRLGVGCYRIWG, the amyloid nucleation score amounted to 5.364 ± 0.046.

ASSWGVNGRVNKISRTG yielded an amyloid nucleation score of 1.32 ± 0.18.

IARLASQSYLDMVADAEDTG: the amyloid nucleation score stood at 0.472 ± 0.49.

GARASQRCESVGLPLEYVSR came in with an amyloid nucleation score of 0.974 ± 0.29. Same read-out and setting: in the case of GRCSSSLRICRSNWGAY it was 0.45 ± 0.22.

In turn, ALENNIDPLGELASVPGCSG came in with an amyloid nucleation score of 0.843 ± 0.27. DTMRYLAGYLMACWPVEWSG displayed an amyloid nucleation score of 0.685 ± 0.22.

As for NEVDG, the amyloid nucleation score turned out to be 2.28 ± 0.1. For NSELLFLGVEWNRT, the amyloid nucleation score is -0.142 ± 0.79.

YVLGVF had an amyloid nucleation score of 0.045 ± 0.79. Take SCRLFVLYALLFGLSVGCVL: the amyloid nucleation score entry was “inactive”.

Another series is described as follows: amyloid nucleation score (Sup35N fusion, yeast selection) (log enrichment); library NNK3; higher = more nucleation; inactive = no reads after selection. In a few lines: as §1
RKNLWLVTTGNSARDMLSKM: the amyloid nucleation score entry is “inactive”. LSFYTFGNNWTKRCNCPTAS: the amyloid nucleation score result is “inactive”. FNETFYGKVGDILISLCRVL: the amyloid nucleation score result was “inactive”. Turning to QYSMVVVV, the amyloid nucleation score entry is “inactive”. For PLGSLHSATQRYVSRLGILS, the amyloid nucleation score result was “inactive”. With GERVSSESGRMPLPLCCYLV, the amyloid nucleation score result is “inactive”. The same measure, in the same setting: in the case of HMPVSIFSAFVYMTQNHAIG it was 1.75 ± 0.062. Turning to FLLVSLAA, the amyloid nucleation score entry was “inactive”. On to FWTSLPFVGHNNISCRLPTP, for which the amyloid nucleation score result is “inactive”. As to TRSRFWRRTKLPLVSVRYHN, the amyloid nucleation score result was “inactive”. Regarding GYIRPALMARGYIVVNSANI, the amyloid nucleation score result is “inactive”.

In the case of FICFNFHRKECVEKASSSCK, the amyloid nucleation score was found to be 1.39 ± 0.064. For PIFWGSSDDYLCRWTLTMCH, the amyloid nucleation score was -0.3 ± 0.37. Turning to ISSPNEVWSVIVEWPRIYC, the amyloid nucleation score entry was “inactive”.

As for LPTSFTSFNLKSLASMT, the amyloid nucleation score entry is “inactive”. NATIFFMQ registered an amyloid nucleation score of 0.605 ± 0.24.

With FLCSTSLFVLVLMLTLTNTP, the amyloid nucleation score result was “inactive”. Substance PETWDTRCGV had an amyloid nucleation score of 0.03 ± 0.88. Take DGRSFAVDAIVYCHLYR: the amyloid nucleation score was 0.758 ± 0.11. Regarding VQPSFTMYMEFSCACVAMQL, the amyloid nucleation score is -0.423 ± 0.49. Consider IHRNEYMMRKKDRILQNLAV, for which the amyloid nucleation score entry was “inactive”. Turning to LESINTLLNYVYYFNLVN, the amyloid nucleation score entry is “inactive”. Same read-out and setting: in the case of FWLSHQNDDVYTFMPLSCSS it was “inactive”; in that of VQLLDRNEIFGVWGSIELLQ, “inactive”; in that of VNLEDGSGDSCKDNCNGERF, -0.821 ± 0.84. On to RLHLAPTNCREVNWPTLWLA, for which the amyloid nucleation score was -0.565 ± 1.8. The substance YGYALVFTFYVGLNSVNRLR registered an amyloid nucleation score of 0.801 ± 0.3. With LNLYRLPLTPSLSASRMIAY, the amyloid nucleation score entry was “inactive”. Still for that read-out and setting: to CIILAGYISLLRLDNDSGWV belongs “inactive”; to IPALIVISQYRGANRFDCAF, “inactive”. Still for that read-out and setting: to KSNFGLVSSPMVFSYCSYTN belongs 0.364 ± 0.35.

As to YVHWLGSALREGDWVLPSAL, the amyloid nucleation score entry is “inactive”.

FGSNTGYVIEGRLAVGFEKL: the amyloid nucleation score entry is “inactive”. The substance ISTVNNIRIRFASKLGFFE had an amyloid nucleation score of 1.25 ± 0.071. On to ATTDGTVSCVYPRFRLFWCI, for which the amyloid nucleation score entry is “inactive”. As to FVDGVSYGTGTSSYKRTELY, the amyloid nucleation score result was “inactive”. The same measure, in the same setting: to SNSVIW belongs “inactive”; to DRTTSVGPYSAVLGFMCDWW, “inactive”; to DRCCLLHYT, “inactive”. On to FIWSAGGIITSHNCLYWQAS, for which the amyloid nucleation score result is “inactive”. As for MYVTIGASNKSYRLLFVARW, the amyloid nucleation score is -0.368 ± 0.75.

For QFSSS, the amyloid nucleation score is -1.13 ± 1.3. CLYIKVFEFNS had an amyloid nucleation score of 2.16 ± 0.076.
